Source: US20170042979A1

Target: soluble form of cation-independent mannose-6-phosphate receptor (lacking the membrane anchor sequence)
Assay: SPR (Biacore), soluble CIMPR immobilised on dextran chip, analyte flowed at 20 µL/min, RU after 3 min less control cell

α-galactosidase conjugated to 10 kDa 4-arm dendrimer (star) hydrazide PEG (Hz4PEG), prepared with 10% w/v PEG (from UniProt P06280 32-429) (enzyme)
fold higher concentration needed for the same change in RU, against unmodified α-galactosidase: 10 fold
